In paper PMC6363177, “R pyocin tail fiber structure reveals a receptor-binding domain with a lectin fold” (PLoS ONE, 2019):

B1: R2-subtype N-terminally truncated tail fiber fragment (R2-NTF) (domain or fragment)
chain: YVRVSYAANPSIREWLPWQRCDIGGSFTKEADGELPGGVNLDSMVTSGWWSQSFTAQAASGANYPIVRAGLLHVYAASSNFIYQTYQAYDGESFYFRCRHSNTWFPWRRMWHGGDFNPSDYLLKSGFYWNALPGKPATFPPSAHNHDVGQLTSGILPLARGGVGSNTAAGARSTIGAGVPATASLGASGWWRDNDTGLIRQWGQVTCPADADASITFPIPFPTLCLGGYANQTSAFHPGTDASTGFRGATTTTAVIRNGYFAQAVLSWEAFGR
notes: R2-subtype pyocin tail fiber PA0620 of Pseudomonas aeruginosa PAO1, residues Y419-R691; numbering relative to native PA0620; Cloned into pMCSG11 (LIC); 32.2 kDa printed; Removal of the tag before crystallisation is not mentioned; also called R2-subtype pyocin tail fiber distal region; PA0620 Y419-R691; source: E. coli BL21 (DE3), co-expressed with chaperone PA0621; in lysate for the Ni-IMAC …
B2: Selenomethionine-labelled R2-NTF (domain or fragment)
chain: B1 chain
modifications: selenomethionine in place of methionine
notes: R2-subtype pyocin tail fiber PA0620 of Pseudomonas aeruginosa PAO1, residues Y419-R691 (plasmid pMCSG11/R2-NTF, as m1); numbering relative to native PA0620; Same construct as m1, made in another host and labelled with selenomethionine for Se-SAD phasing; also called Sel-met R2-NTF; selenomethionine replaced R2-NTF; source: E. coli B834 (DE3) methionine auxotroph, co-expressed with PA0621 in M9 …

Assays:
[1] = target: the molecule itself; assay: SEC; analytical Sepharose-200 10/300 column, elution volumes compared with SEC standards (Biorad); samples diluted to 1 mg/mL in 50mM Tris pH 8.0, 150mM NaCl, 5% glycerol
[2] = target: the molecule itself; assay: crystal structure; vapor diffusion crystals at 16°C; trimer formed by crystallographic symmetry, also checked with PISA

| Protein | stoichiometry N [1] | stoichiometry N [2] |
| --- | --- | --- |
| B1 | 3 | – |
| B2 | – | 3 |
